In patent US20150044245A1, “PARTIAL MHC CONSTRUCTS AND METHODS OF USE” (Oregon Health & Science University, priority 2012, published 2015):
Blank lines part the entries; values can stand above or below the molecule they belong to.

How the values were obtained:
[1] = molecular target: RTL binding sites on CD11b+ monocytes of DR*1501-Tg mice; assay: flow cytometry; blood of naive DR*1501-Tg mice incubated in vitro with FITC-labeled RTL (legend: 500 µg), 90 minutes post-treatment; LYMPHOCYTE gate; No RTL (pre-treatment) panel 0.00%
[2] = molecular target: RTL binding sites on CD19+ cells of DR*1501-Tg mouse blood; assay: flow cytometry; blood of naive DR*1501-Tg mice incubated in vitro with FITC-labeled RTL (legend: 500 µg), 90 minutes post-treatment; lymphocyte gate; No RTL (pre-treatment) panel 0.00%
[3] = molecular target: RTL binding sites on CD11c+ cells of DR*1501-Tg mouse blood; assay: as above
[4] = molecular target: RTL binding sites on CD3+ cells of DR*1501-Tg mouse blood; assay: as above
[5] = molecular target: RTL binding sites on CD19+ cells of DR*1501-Tg mouse blood; assay: flow cytometry; blood of naive DR*1501-Tg mice 15 minutes after injection of 500 µg FITC-labeled RTL; lymphocyte gate, live cells; No RTL (pre-injection) panel 0.00%
[6] = molecular target: RTL binding sites on CD11c+ cells of DR*1501-Tg mouse blood; assay: as above
[7] = molecular target: RTL binding sites on CD11b+ monocytes of DR*1501-Tg mice; assay: flow cytometry; naive CD11b+ monocytes incubated with 1 µg RTL1000 FITC (1 hour at 37 °C by the text); upper row of panels
[8] = molecular target: high affinity binding site for RTL on DR*1501-Tg mouse splenocytes; assay: competition of unlabeled construct with labeled RTL1000 (280 nM) on DR*1501-Tg splenocytes; high affinity site
[9] = molecular target: four-domain MHC class II from DR*1501-Tg mice (human transgene expressed in mouse); assay: direct saturation binding of FITC-labeled construct to MHC class II immuno-adsorbed on Protein L/L243 beads; one-site fit
[10] = molecular target: RTL binding sites on CD11b+ monocytes of DR*1501-Tg mice; assay: flow cytometry; blood of naive DR*1501-Tg mice incubated in vitro with FITC-labeled RTL (legend: 500 µg), 90 minutes post-treatment; monocyte gate; No RTL (pre-treatment) panel 0.07%
[11] = molecular target: RTL binding sites on CD19+ cells of DR*1501-Tg mouse blood; assay: flow cytometry; blood of naive DR*1501-Tg mice 15 minutes after injection of 500 µg FITC-labeled RTL; monocyte gate, live cells; No RTL (pre-injection) panel 0.12%
[12] = molecular target: RTL binding sites on CD11c+ cells of DR*1501-Tg mouse blood; assay: as above
[13] = molecular target: RTL binding sites on CD3+ cells of DR*1501-Tg mouse blood; assay: as above
[14] = molecular target: low affinity binding site for RTL on DR*1501-Tg mouse splenocytes; assay: competition of unlabeled construct with labeled RTL1000 (280 nM) on DR*1501-Tg splenocytes; low affinity site
[15] = molecular target: RTL binding sites on CD11b+ monocytes of DR*1501-Tg mice; assay: flow cytometry; blood of naive DR*1501-Tg mice 15 minutes after injection of 500 µg FITC-labeled RTL; monocyte gate, live cells; No RTL (pre-injection) panel 0.14%
[16] = molecular target: RTL binding sites on CD11b+ monocytes of DR*1501-Tg mice; assay: flow cytometry; blood of naive DR*1501-Tg mice 15 minutes after injection of 500 µg FITC-labeled RTL; LYMPHOCYTE gate, live cells; No RTL (pre-injection) panel 0.00%
[17] = molecular target: low affinity binding site for RTL on MHC class II deficient mouse splenocytes; assay: competition of unlabeled construct with labeled RTL1000 on MHC class II deficient mouse splenocytes; low affinity site
[18] = molecular target: RTL binding sites on CD11c+ cells of DR*1501-Tg mouse blood; assay: flow cytometry; blood of naive DR*1501-Tg mice incubated in vitro with FITC-labeled RTL (legend: 500 µg), 90 minutes post-treatment; monocyte gate; No RTL (pre-treatment) panel 0.09%
[19] = molecular target: CD74 (MHC class II invariant chain) of DR*1501-Tg mouse splenocytes and monocytes (mouse) (UniProt P04441)
[20] = molecular target: low affinity binding site for RTL on MHC class II deficient mouse splenocytes; assay: competition on whole cells of MHC class II knockout mice: labeled RTL1000 against increasing unlabeled RTL1000; SDS-PAGE fluorescence densitometry
[21] = molecular target: RTL binding sites on CD19+ cells of DR*1501-Tg mouse blood; assay: flow cytometry; blood of naive DR*1501-Tg mice incubated in vitro with FITC-labeled RTL (legend: 500 µg), 90 minutes post-treatment; monocyte gate; No RTL (pre-treatment) panel 0.00%
[22] = molecular target: RTL binding sites on CD3+ cells of DR*1501-Tg mouse blood; assay: as above
[23] = molecular target: RTL binding sites on CD11b+ monocytes of DR*1501-Tg mice; assay: flow cytometry; naive CD11b+ monocytes incubated with 5 µg RTL1000 FITC (1 hour at 37 °C by the text); upper row of panels
[24] = molecular target: RTL binding sites on CD3+ cells of DR*1501-Tg mouse blood; assay: flow cytometry; blood of naive DR*1501-Tg mice 15 minutes after injection of 500 µg FITC-labeled RTL; lymphocyte gate, live cells; No RTL (pre-injection) panel 0.05%
Histone complex (Sigma) = assay: SPR (Biacore 3000), histone complex amine coupled to CM5 chip, RTL1000 injected; 1:1 Langmuir model with drifting baseline
[25] = molecular target: low affinity binding site for RTL on DR*1501-Tg mouse splenocytes; assay: saturation binding to 2 million spleen cells on ice; urea lysis, SDS-PAGE, fluorescence densitometry; two-site fit
[26] = molecular target: high affinity binding site for RTL on DR*1501-Tg mouse splenocytes; assay: as above
[27] = molecular target: T1, CD74 (MHC class II invariant chain) of DR*1501-Tg mouse splenocytes and monocytes (mouse, UniProt P04441-2 1-215, limits assumed, surface biotinylated in the immunoprecipitation experiments); assay: direct saturation binding of FITC-labeled construct to CD74 immuno-adsorbed on Protein L/ln-1 beads; SDS-PAGE densitometry; one-site fit
T1 construct: Native protein from mouse cells; also called p31
T1 sequence (looked up): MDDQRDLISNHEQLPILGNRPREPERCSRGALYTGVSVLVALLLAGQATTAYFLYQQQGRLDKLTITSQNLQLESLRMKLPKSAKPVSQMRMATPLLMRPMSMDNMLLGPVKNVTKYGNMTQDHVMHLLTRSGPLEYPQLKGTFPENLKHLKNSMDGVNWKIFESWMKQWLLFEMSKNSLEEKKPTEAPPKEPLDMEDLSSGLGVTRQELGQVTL

[28] = molecular target: T1, CD74 (MHC class II invariant chain) of …; assay: competition of unlabeled DR-α1 with FITC-labeled RTL1000 (320 nM) for immunoprecipitated CD74; gel densitometry; one-site competition fit

% of cells in the upper right quadrant (CD11b PE+, RTL FITC+) [1]: 3.96%
% of cells in the upper right quadrant (CD19 APC+, RTL FITC+) [2]: 1.26%
% of cells in the upper right quadrant (CD11c APC+, RTL FITC+) [3]: 4.4%
% of cells in the upper right quadrant (CD3 PE+, RTL FITC+) [4]: 1.49%
% of cells in the upper right quadrant (CD19 APC+, RTL FITC+) [5]: 0.82%
% of cells in the upper right quadrant (CD11c APC+, RTL FITC+) [6]: 4.63%
% of cells in the upper right quadrant (CD11b APC+, RTL1000 FITC+) [7]: 55.8%
EC50 [8]: 4000 nM
Kd [9]: 1.14 nM
% of cells in the upper right quadrant (CD11b PE+, RTL FITC+) [10]: 38.6%
% of cells in the upper right quadrant (CD19 APC+, RTL FITC+) [11]: 3.93%
% of cells in the upper right quadrant (CD11c APC+, RTL FITC+) [12]: 9.26%
% of cells in the upper right quadrant (CD3 PE+, RTL FITC+) [13]: 0.36%
EC50 [14]: 11 nM
% of cells in the upper right quadrant (CD11b PE+, RTL FITC+) [15]: 44.4%
% of cells in the upper right quadrant (CD11b PE+, RTL FITC+) [16]: 9.23%
EC50 [17]: 71.1 nM
% of cells in the upper right quadrant (CD11c APC+, RTL FITC+) [18]: 6.77%
CD74 expression on naive CD11b+ monocytes after 1 µg RTL1000: % of cells in the upper right quadrant (CD11b APC+, CD74 PE+) [19]: 42%
CD74 expression on naive CD11b+ monocytes after 5 µg RTL1000: % of cells in the upper right quadrant (CD11b APC+, CD74 PE+) [19]: 9.84%
CD74 expression on naive CD11b+ monocytes after 10 µg RTL1000: % of cells in the upper right quadrant (CD11b APC+, CD74 PE+) [19]: 7.32%
IC50 (read off the curve) [20]: 40 nM
% of cells in the upper right quadrant (CD19 APC+, RTL FITC+) [21]: 5.82%
% of cells in the upper right quadrant (CD3 PE+, RTL FITC+) [22]: 4.01%
% of cells in the upper right quadrant (CD11b APC+, RTL1000 FITC+) [23]: 69.5%
% of cells in the upper right quadrant (CD3 PE+, RTL FITC+) [24]: 0.16%
Kd (Histone complex (Sigma)): 575 nM
Kd [25]: 131 nM
Kd [26]: 2.65 nM
Molecule: RTL1000 (pDR2/hMOG-35-55) (peptide-MHC)

Kd [27]: 2.95 nM
EC50 [28]: 447 nM
B1: DR-α1 domain alone (no DR2-β1 domain or peptide) (other, UniProt P01903 26-109, looked up)
chain: IKEEHVIIQAEFYLNPDQSGEFMFDFDGDEIFHVDMAKKETVWRLEEFGRFASFEAQGALANIAVDKANLEIMTKRSNYTPITN
modifications: labeled with FITC in the direct binding assays
notes: domain: α1
